Experiments:
Test in all cases: cell_activity; CHO iGFFP reporter
LOX 3-4m.1970 = biological target: T1, LOX 3-4m.1970 (artificial (I-CreI derived))
T1 chain: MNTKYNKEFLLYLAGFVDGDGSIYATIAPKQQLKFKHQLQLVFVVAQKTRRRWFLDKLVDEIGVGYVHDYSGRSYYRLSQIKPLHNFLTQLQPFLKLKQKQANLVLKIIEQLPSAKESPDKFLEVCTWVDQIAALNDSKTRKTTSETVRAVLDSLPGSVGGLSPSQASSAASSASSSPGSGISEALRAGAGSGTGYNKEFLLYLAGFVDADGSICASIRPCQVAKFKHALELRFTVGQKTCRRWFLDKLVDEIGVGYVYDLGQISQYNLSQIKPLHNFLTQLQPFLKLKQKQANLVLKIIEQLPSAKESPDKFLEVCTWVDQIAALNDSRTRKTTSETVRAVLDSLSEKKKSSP
Text: (§1) A CHO cell reporter system (see WO/2012/167192, FIG. 3) was used to determine whether the engineered meganucleases generated in these studies could recognize and cleave the modified LOX 3-4 recognition sequences in Table 87. To perform the assay, a pair of CHO cell reporter lines were produced, which carried a non-functional Green Fluorescent Protein (GFP) gene expression cassette integrated into the genome of the cell. The GFP gene in each cell line was interrupted by a pair of recognition sequences such that intracellular cleavage of either recognition sequence by a meganuclease would stimulate a homologous recombination event resulting in a functional GFP gene. In both cell lines, one of the recognition sequences was derived from the LOX 3-4 recognition sequence (i.e., those sequences disclosed in Table 87), and the second recognition sequence was specifically recognized by a control meganuclease called “CHO 23/24.” CHO reporter cells comprising a recognition sequence derived from the LOX 3-4 recognition sequence and the CHO 23/24 recognition sequence are referred to herein as “test cells.”
(§2) Novel engineered meganucleases derived from the LOX 3-4x.109 meganuclease were prepared by making amino acid substitutions at one or more positions in the first subunit and one or more positions in the second subunit. The N-terminal subunit recognizes the reverse complement of the AG portion of the four base pair center sequence, which is CT, and the C-terminal subunit recognizes the GC portion of the […] center sequence. These engineered meganucleases were then evaluated for cleavage of the LOX 3-4 recognition sequence modified to have a TTGG center sequence (SEQ ID NO: 248) in the CHO reporter assay according to Example 1. The substitutions in each subunit are provided in Tables 177 and 178, respectively.

LOX 3-4m.2045 = biological target: T2, LOX 3-4m.2045 (artificial (I-CreI derived))
T2 chain: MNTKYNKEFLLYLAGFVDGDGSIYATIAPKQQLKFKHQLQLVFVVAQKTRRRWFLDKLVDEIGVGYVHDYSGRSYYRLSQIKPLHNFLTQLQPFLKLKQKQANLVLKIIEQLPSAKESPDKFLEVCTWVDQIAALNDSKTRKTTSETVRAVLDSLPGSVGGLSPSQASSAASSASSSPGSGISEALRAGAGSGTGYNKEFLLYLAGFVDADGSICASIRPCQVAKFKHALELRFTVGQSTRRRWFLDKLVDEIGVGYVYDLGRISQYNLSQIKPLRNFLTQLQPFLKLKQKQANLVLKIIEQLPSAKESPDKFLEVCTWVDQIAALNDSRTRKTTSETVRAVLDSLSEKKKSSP
Text: as §1, §2

LOX 3-4m.1973 = biological target: T3, LOX 3-4m.1973 (artificial (I-CreI derived))
T3 chain: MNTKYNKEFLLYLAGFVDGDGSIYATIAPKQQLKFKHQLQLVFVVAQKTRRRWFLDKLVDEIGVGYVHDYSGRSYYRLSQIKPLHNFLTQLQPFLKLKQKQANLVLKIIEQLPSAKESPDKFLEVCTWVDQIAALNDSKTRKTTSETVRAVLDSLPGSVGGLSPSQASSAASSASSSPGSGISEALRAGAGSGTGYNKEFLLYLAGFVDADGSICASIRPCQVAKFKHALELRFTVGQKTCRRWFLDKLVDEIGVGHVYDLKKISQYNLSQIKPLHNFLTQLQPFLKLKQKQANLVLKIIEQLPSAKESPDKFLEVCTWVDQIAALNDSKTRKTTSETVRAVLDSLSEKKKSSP
Text: as §1, §2

LOX 3-4m.1981 = biological target: T4, LOX 3-4m.1981 (artificial (I-CreI derived))
T4 chain: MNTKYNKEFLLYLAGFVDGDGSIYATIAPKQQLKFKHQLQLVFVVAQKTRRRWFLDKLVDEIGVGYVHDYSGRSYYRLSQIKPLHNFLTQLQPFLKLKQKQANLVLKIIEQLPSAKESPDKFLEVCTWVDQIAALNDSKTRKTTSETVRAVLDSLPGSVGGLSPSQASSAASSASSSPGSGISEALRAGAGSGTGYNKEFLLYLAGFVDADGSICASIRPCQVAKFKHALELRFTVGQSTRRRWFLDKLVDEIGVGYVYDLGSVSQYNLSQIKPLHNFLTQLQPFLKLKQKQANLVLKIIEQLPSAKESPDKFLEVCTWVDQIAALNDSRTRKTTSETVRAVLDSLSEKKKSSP
Text: as §1, §2

LOX 3-4m.2157 = biological target: T5, LOX 3-4m.2157 (artificial (I-CreI derived))
T5 chain: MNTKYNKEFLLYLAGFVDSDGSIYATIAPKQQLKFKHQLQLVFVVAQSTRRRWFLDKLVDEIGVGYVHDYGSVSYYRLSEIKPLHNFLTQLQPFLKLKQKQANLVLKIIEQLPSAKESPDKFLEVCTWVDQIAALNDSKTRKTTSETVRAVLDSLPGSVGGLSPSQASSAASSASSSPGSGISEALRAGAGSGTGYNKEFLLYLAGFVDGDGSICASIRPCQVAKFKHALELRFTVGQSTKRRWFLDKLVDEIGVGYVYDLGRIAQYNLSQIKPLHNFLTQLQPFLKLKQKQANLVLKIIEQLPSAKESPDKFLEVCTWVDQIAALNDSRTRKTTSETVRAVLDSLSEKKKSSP
Text: as §1
(§3) Novel engineered meganucleases derived from the LOX 3-4x.109 meganuclease were prepared by making amino acid substitutions at one or more positions in the first subunit and one or more positions in the second subunit. These engineered meganucleases were then evaluated for cleavage of the LOX 3-4 recognition sequence modified to have a TCAA center sequence (SEQ ID NO: 331) in the CHO reporter assay according to Example 1.

LOX 3-4m.2165 = biological target: T6, LOX 3-4m.2165 (artificial (I-CreI derived))
T6 chain: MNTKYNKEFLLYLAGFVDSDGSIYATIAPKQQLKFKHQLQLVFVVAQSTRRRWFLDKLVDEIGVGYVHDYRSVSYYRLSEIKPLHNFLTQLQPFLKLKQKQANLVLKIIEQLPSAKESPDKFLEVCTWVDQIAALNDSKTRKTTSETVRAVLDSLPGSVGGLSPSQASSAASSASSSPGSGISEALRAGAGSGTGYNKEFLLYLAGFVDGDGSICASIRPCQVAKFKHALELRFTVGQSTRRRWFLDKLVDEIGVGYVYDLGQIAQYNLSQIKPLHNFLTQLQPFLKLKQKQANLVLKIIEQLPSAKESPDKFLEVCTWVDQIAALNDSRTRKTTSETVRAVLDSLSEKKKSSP
Text: as §1, §3

LOX 3-4m.2229 = biological target: T7, LOX 3-4m.2229 (artificial (I-CreI derived))
T7 chain: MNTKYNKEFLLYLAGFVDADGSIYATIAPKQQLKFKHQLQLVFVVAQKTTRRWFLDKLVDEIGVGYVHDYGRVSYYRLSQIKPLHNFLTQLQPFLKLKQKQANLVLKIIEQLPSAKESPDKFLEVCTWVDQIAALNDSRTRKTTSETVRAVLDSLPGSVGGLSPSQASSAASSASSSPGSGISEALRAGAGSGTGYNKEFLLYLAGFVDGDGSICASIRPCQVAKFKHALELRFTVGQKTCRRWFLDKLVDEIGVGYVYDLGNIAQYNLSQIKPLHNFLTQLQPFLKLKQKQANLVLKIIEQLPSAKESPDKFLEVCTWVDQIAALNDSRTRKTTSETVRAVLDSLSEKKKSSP
Text: as §1, §3

LOX 3-4m.2189 = biological target: T8, LOX 3-4m.2189 (artificial (I-CreI derived))
T8 chain: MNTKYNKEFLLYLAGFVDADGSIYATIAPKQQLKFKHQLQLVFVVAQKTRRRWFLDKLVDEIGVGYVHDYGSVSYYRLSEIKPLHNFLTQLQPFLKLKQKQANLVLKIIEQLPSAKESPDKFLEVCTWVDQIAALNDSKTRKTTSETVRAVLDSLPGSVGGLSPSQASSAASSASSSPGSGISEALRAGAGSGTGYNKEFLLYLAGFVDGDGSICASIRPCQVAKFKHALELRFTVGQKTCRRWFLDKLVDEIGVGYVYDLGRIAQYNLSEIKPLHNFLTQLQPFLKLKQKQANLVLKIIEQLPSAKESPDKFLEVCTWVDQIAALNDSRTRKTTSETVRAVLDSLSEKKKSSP
Text: as §1, §3

LOX 3-4m.2125 = biological target: T9, LOX 3-4m.2125 (artificial (I-CreI derived))
T9 chain: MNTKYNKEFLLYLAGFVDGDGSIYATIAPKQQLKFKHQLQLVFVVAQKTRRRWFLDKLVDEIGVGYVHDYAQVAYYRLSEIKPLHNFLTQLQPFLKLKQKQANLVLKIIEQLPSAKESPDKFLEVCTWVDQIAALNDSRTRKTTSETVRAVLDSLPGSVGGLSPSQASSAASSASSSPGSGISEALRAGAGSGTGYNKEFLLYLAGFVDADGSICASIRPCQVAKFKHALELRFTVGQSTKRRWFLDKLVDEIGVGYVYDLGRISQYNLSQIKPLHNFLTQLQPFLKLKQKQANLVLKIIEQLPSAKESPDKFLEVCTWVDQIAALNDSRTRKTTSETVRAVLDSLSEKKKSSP
Text: as §1
as §3, with “TTAA” for “TCAA”, “341)” for “331)”, “1. The substitutions in each subunit are provided in Tables 174 and 175, respectively.” for “1.”

LOX 3-4m.2145 = biological target: T10, LOX 3-4m.2145 (artificial (I-CreI derived))
T10 chain: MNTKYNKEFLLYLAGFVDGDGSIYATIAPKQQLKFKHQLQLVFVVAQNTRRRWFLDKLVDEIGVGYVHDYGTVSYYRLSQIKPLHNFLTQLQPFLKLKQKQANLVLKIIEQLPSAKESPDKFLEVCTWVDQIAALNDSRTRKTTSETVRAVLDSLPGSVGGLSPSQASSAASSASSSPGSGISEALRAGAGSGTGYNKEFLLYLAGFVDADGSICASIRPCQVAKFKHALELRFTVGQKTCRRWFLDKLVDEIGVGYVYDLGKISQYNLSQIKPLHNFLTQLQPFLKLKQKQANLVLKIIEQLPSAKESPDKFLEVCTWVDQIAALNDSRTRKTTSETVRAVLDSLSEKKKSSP
Text: as §1
as §3, with “TTAA” for “TCAA”, “341)” for “331)”, “1. The substitutions in each subunit are provided in Tables 174 and 175, respectively.” for “1.”

LOX 3-4m.2151 = biological target: T11, LOX 3-4m.2151 (artificial (I-CreI derived))
T11 chain: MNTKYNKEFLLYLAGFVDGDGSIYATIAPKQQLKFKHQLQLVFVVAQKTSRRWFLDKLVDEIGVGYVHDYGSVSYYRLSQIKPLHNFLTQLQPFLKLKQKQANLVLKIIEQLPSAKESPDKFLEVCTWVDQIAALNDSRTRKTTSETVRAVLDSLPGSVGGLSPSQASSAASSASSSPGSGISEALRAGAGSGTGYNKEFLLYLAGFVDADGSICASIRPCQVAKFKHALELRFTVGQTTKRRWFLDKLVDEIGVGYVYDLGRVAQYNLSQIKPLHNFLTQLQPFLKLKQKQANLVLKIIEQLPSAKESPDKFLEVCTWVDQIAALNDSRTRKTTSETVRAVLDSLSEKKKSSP
Text: as §1
as §3, with “TTAA” for “TCAA”, “341)” for “331)”, “1. The substitutions in each subunit are provided in Tables 174 and 175, respectively.” for “1.”

LOX 3-4m.2142 = biological target: T12, LOX 3-4m.2142 (artificial (I-CreI derived))
T12 chain: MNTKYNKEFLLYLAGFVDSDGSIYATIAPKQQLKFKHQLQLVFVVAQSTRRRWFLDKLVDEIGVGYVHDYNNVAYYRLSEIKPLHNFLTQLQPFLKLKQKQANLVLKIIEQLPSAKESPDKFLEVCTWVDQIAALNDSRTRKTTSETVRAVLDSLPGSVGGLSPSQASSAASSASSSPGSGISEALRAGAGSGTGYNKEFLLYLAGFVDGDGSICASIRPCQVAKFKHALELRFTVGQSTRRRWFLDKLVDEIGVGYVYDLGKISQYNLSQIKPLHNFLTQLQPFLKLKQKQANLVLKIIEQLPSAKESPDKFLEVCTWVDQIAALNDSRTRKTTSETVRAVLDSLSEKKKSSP
Text: as §1
as §3, with “TTAA” for “TCAA”, “341)” for “331)”, “1. The substitutions in each subunit are provided in Tables 174 and 175, respectively.” for “1.”

B1: LOX 3-4 TTGG (dsDNA)
DNA 1: GTATAGCATTTGGTATACGAAG
DNA 2: CTTCGTATACCAAATGCTATAC
LOX 3-4m.1970
  activity: 13.5 % GFP
LOX 3-4m.2045
  activity: 14.2 % GFP
LOX 3-4m.1973
  activity: 14.3 % GFP
LOX 3-4m.1981
  activity: 13.5 % GFP

B2: LOX 3-4 TCAA (dsDNA)
DNA 1: GTATAGCATTCAATATACGAAG
DNA 2: CTTCGTATATTGAATGCTATAC
LOX 3-4m.2157
  activity: 9.79 % GFP
LOX 3-4m.2165
  activity: 10.3 % GFP
LOX 3-4m.2229
  activity: 11.8 % GFP
LOX 3-4m.2189
  activity: 11.7 % GFP

B3: LOX 3-4 TTAA (dsDNA)
DNA 1: GTATAGCATTTAATATACGAAG
DNA 2: CTTCGTATATTAAATGCTATAC
LOX 3-4m.2125
  activity: 12.7 % GFP
LOX 3-4m.2145
  activity: 12.9 % GFP
LOX 3-4m.2151
  activity: 13 % GFP
LOX 3-4m.2142
  activity: 13.9 % GFP
